The target of experiment [1] is T1, mouse EphB2 extracellular region-Fc-His protein (mouse; human, UniProt P54763 19-543).
T1 construct: extracellular domain; not shown: Fc region of human IgG1; histidine tag
T1 sequence (looked up): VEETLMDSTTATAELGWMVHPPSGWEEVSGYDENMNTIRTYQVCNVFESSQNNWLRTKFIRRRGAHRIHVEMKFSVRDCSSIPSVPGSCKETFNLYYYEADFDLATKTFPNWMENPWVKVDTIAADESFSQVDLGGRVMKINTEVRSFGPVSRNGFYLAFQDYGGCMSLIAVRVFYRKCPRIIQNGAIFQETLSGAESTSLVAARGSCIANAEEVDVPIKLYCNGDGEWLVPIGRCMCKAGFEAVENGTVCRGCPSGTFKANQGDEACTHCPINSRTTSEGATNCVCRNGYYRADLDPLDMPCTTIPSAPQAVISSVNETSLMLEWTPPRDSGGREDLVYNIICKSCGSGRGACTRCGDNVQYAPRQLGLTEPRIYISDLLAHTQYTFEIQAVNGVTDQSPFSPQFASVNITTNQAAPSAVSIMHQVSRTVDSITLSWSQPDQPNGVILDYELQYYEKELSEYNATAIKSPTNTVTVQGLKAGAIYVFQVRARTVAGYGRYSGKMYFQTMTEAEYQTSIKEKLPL
Description: ELISA: Fc-His proteins (1 nM) captured on anti-6-His antibody, antibody B 10 µg/mL with human IgG 100 µg/mL, HRP anti-human kappa light chain antibody, OD450 as % of mouse EphA4-Fc-His. On the procedure: Rabbit anti-6-His antibodies (Bethyl Laboratories) were coated onto the wells of a 96-well plate (Nunc). After incubating at 4° C. overnight, the wells were blocked at room temperature for 1 hour by 1% Block Ace (DS Pharma Biomedical). After washing 3 times with 0.05% Tween 20/PBS (Thermo […]), each Eph receptor of mouse extracellular region-Fc-His protein (final concentration 1 nM) was seeded into each well, and incubated at room temperature for 1 hour. After washing 3 times, human IgG solution (100 μg/mL, Sigma) and antibody B (10 μg/mL) were supplemented to the wells, and incubated at room temperature for 1 hour. Horseradish peroxidase-labeled goat anti-human Kappa Light Chain antibody (IBL) was added, and incubated at room temperature for 1 hour. After washing 3 times, TMBZ (3,3′,5,5′-tetramethylbenzidine, Sigma) solution was added to the wells, and upon confirmation of modest coloring, an equal amount of quenching solution (1 N H₂SO₄, Wako Pure Chemicals) was added to the wells, and absorbance at 450 nm was read by a microplate reader (PerkinElmer).
On the technique in general: ELISA stands for enzyme-linked immunosorbent assay.

For experiment [2], the target named is T2, mouse EphA4 extracellular region-SEAP-His protein (mouse).
T2 construct: also called mouse EphA4 extracellular region-SEAP-His 10
Description: SPR (Biacore T200): mouse EphA4 extracellular region-SEAP-His captured on anti-His antibody, antibody A 1.6-100 nM as analyte, 1:1 fit. The protocol: The binding affinity of antibody A against mouse and human EphA4 was determined by surface plasmon resonance (SPR method) employing Biacore T200 (GE Healthcare). First, anti-His antibodies (GE Healthcare, 28-9950-56) were fixed to a sensor chip CM5. Fixation was carried out by amine coupling method employing N-hydroxysuccinimide (NHS) and N-ethyl-N′-(3-dimethylaminopropyl) carbodiimide hydrochloride salt (EDC), and ethanolamine was employed for blocking (the sensor chip and reagents for fixation are all from GE Healthcare). This was diluted with the fixation buffer (10 mM sodium acetate, pH 4.5) to 3.5 μg/mL, and fixed onto the sensor chip according to the protocol accompanying Biacore T200. Mouse or human EphA4 extracellular region-SEAP-His 10 was diluted with the running buffer HBS-EP (GE Healthcare, BR-1001-88), and the solution was sent and captured onto the flow cell for 120 seconds (about 10 RU of captured amount). […] Fitting analysis by 1:1 binding model employing the software accompanying the system, BIA evaluation software, was carried out against the binding reaction curve obtained, and the binding affinity (KD=kd/ka) against mouse and human EphA4 was calculated.
(In general: Surface plasmon resonance follows binding to a sensor surface in real time, without labels.)

For another experiment, the target named is MBP. Description: ELISA: human EphA4 domain-MBP-His proteins (10 nM) captured on anti-6-His antibody, antibody A 10 nM, HRP anti-mouse IgG Fc fragment antibody, OD450-OD650. On the procedure: For antibody A, the evaluation of binding activity with various domains in human EphA4 was carried cut according to the following steps.
Rabbit anti-6-His antibodies (Bethyl Laboratories) were coated onto the wells of a 96-well plate (Nunc). After incubating at 4° C. overnight, the wells were blocked at room temperature for 1 hour by 1% Block Ace (DS Pharma Biomedical). After washing twice with 0.02% Tween 20/PBS (Nacalai Tesque), human EphA4 extracellular region-MBP-His protein, human EphA4 ligand binding domain-MBP-His protein, human EphA4 fibronectin type III domain 1-NBP-His protein, and human EphA4 fibronectin type III domain 2-MBP-His protein (final concentration 10 nM) were seeded into the wells, and incubated at room temperature for 1 hour. After washing 3 times, antibody A (final concentration 10 nM) was supplemented to the wells, and incubated at room temperature for 1 hour. Horseradish peroxidase-labeled goat anti-mouse IgG Fcγ fragment antibody (Jackson ImmunoResearch Laboratories) was added, and incubated at room temperature for 1 hour. After washing 5 times, TMB solution (KPL) was added to the wells, and upon confirmation of modest coloring, an equal amount of quenching solution (2 N H₂SO₄, Wako Pure Chemicals) was added to the wells, and absorbance at 450 nm and 650 nm were read by a microplate reader (PerkinElmer).

T2 sequence (chain, as listed by the source limits assumed): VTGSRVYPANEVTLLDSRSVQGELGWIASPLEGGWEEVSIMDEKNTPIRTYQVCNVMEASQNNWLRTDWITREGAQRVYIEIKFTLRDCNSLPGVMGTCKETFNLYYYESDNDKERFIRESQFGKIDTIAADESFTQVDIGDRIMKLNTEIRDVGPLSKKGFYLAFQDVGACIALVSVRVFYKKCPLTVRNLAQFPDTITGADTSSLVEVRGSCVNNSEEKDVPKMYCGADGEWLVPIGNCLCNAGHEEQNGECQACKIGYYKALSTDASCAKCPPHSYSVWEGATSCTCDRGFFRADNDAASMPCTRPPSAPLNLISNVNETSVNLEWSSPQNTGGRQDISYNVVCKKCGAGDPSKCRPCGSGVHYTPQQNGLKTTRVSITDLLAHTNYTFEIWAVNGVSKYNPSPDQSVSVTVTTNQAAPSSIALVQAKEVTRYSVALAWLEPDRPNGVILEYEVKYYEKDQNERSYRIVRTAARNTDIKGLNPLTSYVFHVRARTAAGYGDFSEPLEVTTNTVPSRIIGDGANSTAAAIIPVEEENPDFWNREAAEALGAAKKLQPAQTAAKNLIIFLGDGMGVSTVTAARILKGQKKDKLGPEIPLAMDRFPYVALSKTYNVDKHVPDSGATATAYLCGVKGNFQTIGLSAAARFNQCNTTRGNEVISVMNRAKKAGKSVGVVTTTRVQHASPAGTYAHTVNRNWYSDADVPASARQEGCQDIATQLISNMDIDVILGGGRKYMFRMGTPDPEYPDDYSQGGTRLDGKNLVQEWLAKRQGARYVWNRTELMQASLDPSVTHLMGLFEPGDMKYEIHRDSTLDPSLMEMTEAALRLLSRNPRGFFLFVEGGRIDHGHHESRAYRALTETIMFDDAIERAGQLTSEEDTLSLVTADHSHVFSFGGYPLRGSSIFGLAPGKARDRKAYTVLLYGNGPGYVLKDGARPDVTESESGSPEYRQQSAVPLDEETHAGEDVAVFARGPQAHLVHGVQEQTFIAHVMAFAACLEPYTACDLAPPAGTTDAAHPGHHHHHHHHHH

B1: humanized anti-EphA4 monoclonal antibody (antibody B) (antibody, human IgG2, V domains shown)
VH: QVQLVESGGGVVQPGRSLRLSCAVSGFSLTRFGVHWVRQAPGKGLEWVAVIWRGGSTDYNAAFMSRLTISKDNSKNTVYLQMNSLRAEDTAVYYCAKESLFGVYYDYGYYSMDYWGQGTTVTVSS
VL: DIQMTQSPSSLSASVGDRVTITCRASQEISGYLSWLQQKPGKAPKRLIYAASTLDSGVPSRFSGSRSGTEYTLTISSLQPEDFATYYCLQYASYPLTFGGGTKVEIKR
notes: expressed in Expi293F cells; also called humanized antibody of antibody A; HK2-42 / L1-8
Turning to B1, in experiment [1], the binding result is “no binding (tested: 10 µg/mL)”.

B2: mouse anti-EphA4 monoclonal antibody (antibody A) (antibody, mouse IgG1, kappa, V domains shown)
VH: QVQLKQSGPSLVQPSQSLSITCTVSGFSLTRYGVHWVRQSPGKGLEWLGVIWRGGSTDYNAAFMSRLSITKDNSKSQVFFKMNSLQADDTAIYYCAKESLFGVYYDYGYYSMDYWGQGTSVTVSS
VL: DIQMTQSPSSLSASLGERVSLTCRASQEISGYLSWLQQKPDGTIKRLIYAASTLDSGVPKRFSGSRSGSDYSLTISSLESEDFADYYCLQYASYPLTFGAGTKLELKR
notes: purified from hybridoma supernatant
For the molecule B2, in experiment [2], the koff (usually the first-order rate constant of dissociation) worked out at 0.000433 s⁻¹ and the kon (commonly the rate constant with which the complex forms) stood at 328000 M⁻¹ s⁻¹. Besides, the binding result with MBP was “no binding (tested: 10 nM)”.

The record behind these values is patent publication US20240010735A1 (EISAI R AND D MANAGEMENT, published 2024).
